Source: article PMC4650537, “Loss of Caspase-3 sensitizes colon cancer cells to genotoxic stress via RIP1-dependent necrosis” (Cell Death & Disease, 2015)

Target: T1, pro-caspase-8 (human (endogenous in HCT116), UniProt Q14790 1-479)
T1 construct: caspase-8, human, endogenous in HCT116 colon cancer cells; Precipitated with a caspase-8 antibody (IP-Cas-8); also called Cas-8; source: endogenous, HCT116 (WT or caspase-3 knockout) whole cell lysate
Assay: co-IP; IP with caspase-8 antibody (IP-Cas-8) from lysates of HCT116 WT or C3KO cells treated with DMSO or 5-FU (50 μg/ml) for 24 h; also with z-VAD (20 μM) and with or without glutathione (GSH, 10 μM); blots quantified (Supplementary Tables S2, S3)
Conditions: partners not purified

T1 sequence (Q14790 whole entry): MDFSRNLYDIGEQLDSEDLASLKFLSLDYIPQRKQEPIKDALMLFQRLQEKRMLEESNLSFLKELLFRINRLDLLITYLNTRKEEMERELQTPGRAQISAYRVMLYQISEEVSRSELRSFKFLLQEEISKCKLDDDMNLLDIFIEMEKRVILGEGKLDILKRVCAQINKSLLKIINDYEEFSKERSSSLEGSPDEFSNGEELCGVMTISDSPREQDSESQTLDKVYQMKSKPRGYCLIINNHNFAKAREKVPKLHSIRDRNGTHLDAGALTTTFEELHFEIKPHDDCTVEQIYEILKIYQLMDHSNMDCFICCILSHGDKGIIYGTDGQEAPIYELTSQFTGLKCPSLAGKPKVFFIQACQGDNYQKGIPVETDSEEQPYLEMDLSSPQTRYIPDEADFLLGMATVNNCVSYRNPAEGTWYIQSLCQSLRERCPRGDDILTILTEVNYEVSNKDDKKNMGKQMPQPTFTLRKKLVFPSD

Row | Binder | quantified 5-FU-induced RIP1 in the complex (with z-VAD; RIP1 term of the FADD to RIP1 ratio) | quantified 5-FU-induced FADD in the complex (C3KO cells, without z-VAD; FADD term of the FADD to RIP1 ratio) | quantified 5-FU-induced FADD in the complex (with z-VAD; FADD term of the FADD to RIP1 ratio)
1 | receptor (TNFRSF)-interacting serine-threonine kinase 1 (natural protein, human (endogenous in HCT116), UniProt Q13546 1-671, looked up, also called RIP1; RIP; source: endogenous, HCT116 (WT or caspase-3 knockout) whole cell lysate) MQPDMSLNVIKMKSSDFLESAELDSGGFGKVSLCFHRTQGLMIMKTVYKGPNCIEHNEALLEEAKMMNRLRHSRVVKLLGVIIEEGKYSLVMEYMEKGNLMHVLKAEMSTPLSVKGRIILEIIEGMCYLHGKGVIHKDLKPENILVDNDFHIKIADLGLASFKMWSKLNNEEHNELREVDGTAKKNGGTLYYMAPEHLNDVNAKPTEKSDVYSFAVVLWAIFANKEPYENAICEQQLIMCIKSGNRPDVDDITEYCPREIISLMKLCWEANPEARPTFPGIEEKFRPFYLSQLEESVEEDVKSLKKEYSNENAVVKRMQSLQLDCVAVPSSRSNSATEQPGSLHSSQGLGMGPVEESWFAPSLEHPQEENEPSLQSKLQDEANYHLYGSRMDRQTKQQPRQNVAYNREEERRRRVSHDPFAQQRPYENFQNTEGKGTAYSSAASHGNAVHQPSGLTSQPQVLYQNNGLYSSHGFGTRPLDPGTAGPRVWYRPIPSHMPSLHNIPVPETNYLGNTPTMPFSSLPPTDESIKYTIYNSTGIQIGAYNYMEIGGTSSSLLDSTNTNFKEEPAAKYQAIFDNTTSLTDKHLDPIRENLGKHWKNCARKLGFTQSQIDEIDHDYERDGLKEKVYQMLQKWVMREGIKGATVGKLAQALHQCSRIDLLSSLIYVSQN | 7.3 | – | –
2 | Fas (TNFRSF6)-associated via death domain (natural protein, human (endogenous in HCT116), UniProt Q13158 1-208, looked up, FADD, human, endogenous in HCT116 colon cancer cells; also called FADD; source: endogenous, HCT116 (WT or caspase-3 knockout) whole cell lysate) MDPFLVLLHSVSSSLSSSELTELKFLCLGRVGKRKLERVQSGLDLFSMLLEQNDLEPGHTELLRELLASLRRHDLLRRVDDFEAGAAAGAAPGEEDLCAAFNVICDNVGKDWRRLARQLKVSDTKIDSIEDRYPRNLTERVRESLRIWKNTEKENATVAHLVGALRSCQMNLVADLVQEVQQARDLQNRSGAMSPMSWNSDASTSEAS | – | 1.82 | 7.5
